{"source": "patent US8329178B2", "test_in_all_cases": "FACS, 293T cells expressing CXCR4 variants", "key": {"[1]": {"target": "CXCR2/CXCR4 chimera 2444b (human) (UniProt P61073)"}, "ΔN31-CXCR4 (human)": {"target": "ΔN31-CXCR4 (human) (UniProt P61073)", "sequence (P61073 32-352, stated change not applied)": "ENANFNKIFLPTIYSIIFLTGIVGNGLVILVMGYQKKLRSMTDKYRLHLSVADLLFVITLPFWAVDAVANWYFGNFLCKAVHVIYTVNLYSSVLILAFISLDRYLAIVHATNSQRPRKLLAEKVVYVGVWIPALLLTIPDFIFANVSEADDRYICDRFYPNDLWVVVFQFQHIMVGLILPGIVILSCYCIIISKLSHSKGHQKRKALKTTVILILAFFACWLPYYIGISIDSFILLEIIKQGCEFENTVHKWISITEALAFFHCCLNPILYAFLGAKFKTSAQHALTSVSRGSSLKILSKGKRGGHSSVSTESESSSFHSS"}, "[2]": {"target": "CXCR2/CXCR4 chimera 2442 (human) (UniProt P61073)"}, "ΔN25-CXCR4 (human)": {"target": "ΔN25-CXCR4 (human) (UniProt P61073)", "sequence (P61073 26-352, stated change not applied)": "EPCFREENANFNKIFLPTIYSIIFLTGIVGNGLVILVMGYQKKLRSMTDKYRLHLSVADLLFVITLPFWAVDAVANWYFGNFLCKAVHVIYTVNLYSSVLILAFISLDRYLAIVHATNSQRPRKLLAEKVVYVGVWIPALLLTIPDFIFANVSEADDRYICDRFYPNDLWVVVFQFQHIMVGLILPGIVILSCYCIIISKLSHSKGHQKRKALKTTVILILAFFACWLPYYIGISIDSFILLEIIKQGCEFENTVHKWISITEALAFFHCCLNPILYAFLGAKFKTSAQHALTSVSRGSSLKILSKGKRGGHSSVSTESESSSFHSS"}}}
{"binder": "33-IgG1 (antibody, V domains shown) VH: QVTLKESGGGVVQPGRSLRLSCAASGFTFTNYGLHWVRQAPGKGLEWVAVISHDGTKKYYADSVKGRFTISRDSSENTLYLQMNSLRPEDSALYYCARDGGYCSGGRCYSYGMDVWGQGTTVTVSS VL: QSVLTQPPSASGTPGQRVTISCSGSRSNIGSNTVNWYQQLPGTAPKLLIYTNNQRPSGVPDRFSGSKSGTSASLAITGLQAEDEADYYCLSFDSSLTSYVFGTGTKVTVLG", "values": [{"measurement": "binding to cells expressing the variant (+%)", "setting": "[1]", "result": 1, "unit": "%"}, {"measurement": "binding to cells expressing the variant (+%)", "setting": "ΔN31-CXCR4 (human)", "result": 9, "unit": "%"}, {"measurement": "binding to cells expressing the variant (+%)", "setting": "[2]", "result": 1.5, "unit": "%"}, {"measurement": "binding to cells expressing the variant (+%)", "setting": "ΔN25-CXCR4 (human)", "result": 13, "unit": "%"}]}
